Data from patent US20220305081A1.

Molecular target: human SIRPγ (signal regulatory protein gamma), expressed on cells (human) (UniProt Q9P1W8)
Test: cell-based or functional assay

UniProt Q9P1W8, sequence (Q9P1W8 29-387): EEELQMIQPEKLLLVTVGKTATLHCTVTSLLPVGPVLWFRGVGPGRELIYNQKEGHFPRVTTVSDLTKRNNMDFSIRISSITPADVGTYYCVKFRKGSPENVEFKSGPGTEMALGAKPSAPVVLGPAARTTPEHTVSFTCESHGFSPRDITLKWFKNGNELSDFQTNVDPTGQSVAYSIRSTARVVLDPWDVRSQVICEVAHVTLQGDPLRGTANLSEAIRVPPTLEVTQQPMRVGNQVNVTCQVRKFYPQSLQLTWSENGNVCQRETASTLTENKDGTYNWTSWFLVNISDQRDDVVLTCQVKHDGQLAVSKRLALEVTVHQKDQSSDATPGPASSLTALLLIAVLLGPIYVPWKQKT

level of IFNγ secreted by T cells, relative to OX119-treated cells: > 6 fold | level of IFNγ secreted by T cells, relative to cells treated with LSB2.20: 2 fold
Substance: anti-SIRPγ monoclonal antibody clone OX117
